Assay results reported in patent US20260109776A1 (Amgen, published 2026).
Where two headings read alike, the source gives them in different places.

T1: cynoCD40(1-193) (cynomolgus monkey, UniProt P25942 21-193 (human entry))
T1 construct: also called soluble cynomolgus monkey CD40
T1 chain: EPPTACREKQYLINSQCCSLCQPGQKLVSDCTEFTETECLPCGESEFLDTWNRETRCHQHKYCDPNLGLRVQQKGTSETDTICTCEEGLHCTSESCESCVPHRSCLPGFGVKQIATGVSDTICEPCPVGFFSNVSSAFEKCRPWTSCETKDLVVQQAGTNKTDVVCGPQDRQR

T2: cynoMSLN(296-598) (cynomolgus monkey)
T2 chain: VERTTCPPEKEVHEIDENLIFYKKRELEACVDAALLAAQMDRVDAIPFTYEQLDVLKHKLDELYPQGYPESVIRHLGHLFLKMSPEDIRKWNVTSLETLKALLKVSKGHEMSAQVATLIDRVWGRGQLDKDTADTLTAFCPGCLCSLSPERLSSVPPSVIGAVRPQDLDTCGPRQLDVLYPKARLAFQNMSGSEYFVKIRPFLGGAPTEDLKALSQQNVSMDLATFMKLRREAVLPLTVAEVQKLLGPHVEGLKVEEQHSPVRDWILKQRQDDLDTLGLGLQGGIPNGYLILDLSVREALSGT

T3: cynoCD40(1-193) (cynomolgus monkey, UniProt P25942 21-193 (human entry))
T3 construct: Soluble form used in Octet; also called cynomolgus monkey CD40
T3 chain: T1 chain

T4: soluble recombinant cynomolgus monkey mesothelin (cynomolgus monkey)
T4 chain: T2 chain

B1: 6052-2 (bispecific antibody)
heavy: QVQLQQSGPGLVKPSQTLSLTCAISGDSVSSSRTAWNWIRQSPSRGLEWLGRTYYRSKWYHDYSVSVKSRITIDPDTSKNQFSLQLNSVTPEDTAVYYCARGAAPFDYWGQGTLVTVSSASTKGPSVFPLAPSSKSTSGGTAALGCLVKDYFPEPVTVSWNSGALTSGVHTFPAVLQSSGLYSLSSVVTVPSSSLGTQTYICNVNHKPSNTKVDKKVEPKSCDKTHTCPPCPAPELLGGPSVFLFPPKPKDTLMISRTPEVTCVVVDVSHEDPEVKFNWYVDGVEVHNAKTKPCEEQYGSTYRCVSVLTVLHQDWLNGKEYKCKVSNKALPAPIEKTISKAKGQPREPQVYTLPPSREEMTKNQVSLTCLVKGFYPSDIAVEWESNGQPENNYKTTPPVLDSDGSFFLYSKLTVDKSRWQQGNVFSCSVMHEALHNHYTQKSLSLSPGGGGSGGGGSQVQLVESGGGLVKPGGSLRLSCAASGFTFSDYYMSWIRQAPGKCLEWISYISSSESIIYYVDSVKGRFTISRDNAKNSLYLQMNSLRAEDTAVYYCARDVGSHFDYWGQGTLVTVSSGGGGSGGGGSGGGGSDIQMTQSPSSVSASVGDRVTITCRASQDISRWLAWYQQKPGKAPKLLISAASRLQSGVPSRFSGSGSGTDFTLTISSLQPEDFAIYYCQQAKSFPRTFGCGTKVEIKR
light: EIVLTQSPGTLSLSPGERATLSCRASQSVSSNYLAWYQQKPGQAPRALIYAASNRAAGISDRFSGSGSGTDFTLTISRLEPEDFAVYFCQQYGSSPLTFGGGTKVEIKRTVAAPSVFIFPPSDEQLKSGTASVVCLLNNFYPREAKVQWKVDNALQSGNSQESVTEQDSKDSTYSLSSTLTLSKADYEKHKVYACEVTHQGLSSPVTKSFNRGEC
notes: IgG-scFv: IgG (CD40) 36F3, scFv (MSLN) 6F4; also called 6052-3
B2: Anti-CD40xMSLN IgG-Fab molecule 5972-1 (bispecific antibody)
chain 1: QVQLVESGGGLVKPGGSLRLSCAASGFTFSDYYMSWIRQAPGKGLEWISYISSSESIIYYVDSVKGRFTISRDNAKNSLYLQMNSLRAEDTAVYYCARDVGSHFDYWGQGTLVTVSS
chain 2: DIQMTQSPSSVSASVGDRVTITCRASQDISRWLAWYQQKPGKAPKLLISAASRLQSGVPSRFSGSGSGTDFTLTISSLQPEDFAIYYCQQAKSFPRTFGQGTKVEIKR
chain 3: QVQLQQSGPGLVKPSQTLSLTCAISGDSVSSSRTAWNWIRQSPSRGLEWLGRTYYRSKWYHDYSVSVKSRITIDPDTSKNQFSLQLNSVTPEDTAVYYCARGAAPFDYWGQGTLVTVSS
chain 4: EIVLTQSPGTLSLSPGERATLSCRASQSVSSNYLAWYQQKPGQAPRALIYAASNRAAGISDRFSGSGSGTDFTLTISRLEPEDFAVYFCQQYGSSPLTFGGGTKVEIKR
B3: Anti-CD40xMSLN IgG-Fab molecule 5987-1 (bispecific antibody)
chain 1: QVQLVQSGAEVTKPGASVKVSCKASGYTFAGYYMHWVRQAPGQGLEWMGWINPHSGGTNYAQKFQDRVTMTRDTSINTAYMELSRLRSDDTAVYYCARERISMVRGVGHNWFAPWGQGTLVTVSS
chain 2: DIQMTQSPSSLSASVGDRVTITCRASQDISNNLAWFQQKPGKPPKSLMYAASSLHSGVPSTFSGSGSGTDFTFTISSLQPEDFATYYCQQYNSYPLTFGGGTKVEIRR
chain 3: B2 chain 1
chain 4: B2 chain 2
B4: Anti-CD40xMSLN IgG-Fab molecule 5973-1 (bispecific antibody)
chain 1: B2 chain 1
chain 2: B2 chain 2
chain 3: QVQLVESGGGLVKPGGSLRLSCAASEFTFSDYYMSWIRQAPGKGLEWVSYISRSGDTIYYADSVKGRFTISRDNAKNSLYLQMNGLRAEDTAVYYCARDLAAGATGGLDCWGQGTLVTVSS
chain 4: SYELTQPPSVSVSPGQTASITCSGERLGNKYICWYQQKPGQSPVLVIYQDFKRPSGIPERFSGSNSGITATLTISGTQAMDEADYYCQAWDSRTVVFGGGTKLTVLG
B5: anti-mesothelin antibody 7G11 (antibody, V domains shown)
VH: EVQLVESGGGLIQPGGSLRLSCAVSGFTVSSKFMTWVRQAPGKGLEWVSVIYSGGKTYYADSVKGRFTISRDNSKNTLYLQMNSLRAEDTAVYYCARDSGGWGYFDYWGQGTLVTVSS
VL: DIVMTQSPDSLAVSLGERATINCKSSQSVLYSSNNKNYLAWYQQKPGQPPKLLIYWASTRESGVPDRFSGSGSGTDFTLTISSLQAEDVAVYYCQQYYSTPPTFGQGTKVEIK

Tests used:
[1] = molecular target: T5, huCD40(1-193) (human, UniProt P25942 21-193); experiment: Octet
T5 construct: also called soluble human CD40
Description: (§1) A panel of mesothelin×CD40 bispecific antibodies were generated in the IgG-scFv format (Table 13) and evaluated for binding to soluble forms of human and cynomolgus monkey CD40 and human and cynomolgus monkey mesothelin using the Octet assay (Table 14). Association rate (Kon), disassociation rate (Kdis), and equilibrium binding constant (KD) were calculated. […] These bispecific antibodies were next evaluated for their ability to induce mesothelin-dependent activation of human B cells. CHO cells expressing human mesothelin were seeded into a 96 well plate. The next day varying concentrations of the mesothelin×CD40 IgG-scFv antibodies were added to the wells along with purified human B cells and the plates were incubated for an additional 48 hours. Upregulation of CD86, a marker of CD40-mediated B cell activation, was quantified on B cells by flow cytometry.

[2] = molecular target: T1, cynoCD40(1-193); experiment: Octet
Description: as §1

[3] = molecular target: T6, huMSLN(296-598) (human, UniProt Q13421 296-598); experiment: Octet
T6 construct: also called soluble human mesothelin
Description: as §1
T6 sequence (Q13421 other isoform, or with tags, fused parts or gaps): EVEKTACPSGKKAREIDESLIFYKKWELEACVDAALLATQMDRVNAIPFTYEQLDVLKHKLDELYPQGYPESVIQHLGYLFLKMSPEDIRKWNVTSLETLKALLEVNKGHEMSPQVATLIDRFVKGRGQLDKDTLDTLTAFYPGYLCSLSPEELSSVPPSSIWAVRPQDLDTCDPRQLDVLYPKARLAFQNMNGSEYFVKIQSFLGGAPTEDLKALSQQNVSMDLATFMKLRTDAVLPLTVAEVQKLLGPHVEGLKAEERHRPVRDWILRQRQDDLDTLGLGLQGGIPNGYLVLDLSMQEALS

[4] = molecular target: T2, cynoMSLN(296-598); experiment: Octet
Description: as §1

[5] = molecular target: T7, human CD40 (human, UniProt P25942 21-277); experiment: cell-based or functional assay
[6] = molecular target: T7, human CD40; experiment: cell-based or functional assay; remark: listed apart in the source
[7] = molecular target: T8, huCD40(1-193) (human, UniProt P25942 21-193); experiment: Octet, soluble antigen
T8 construct: Soluble form used in Octet; also called human CD40; soluble human CD40

[8] = molecular target: T3, cynoCD40(1-193); experiment: Octet, soluble antigen
[9] = molecular target: huMSLN(296-598) (human, UniProt Q13421 296-598); experiment: Octet, soluble antigen
Target sequence in this assay (Q13421 other isoform, or with tags, fused parts or gaps): as above

[10] = molecular target: human CD40 on purified human B cells (human, UniProt P25942 21-277); experiment: cell-based or functional assay
[11] = molecular target: T4, soluble recombinant cynomolgus monkey …; experiment: Octet, soluble recombinant cyno MSLN

Binder | Kd [7] | koff [7] | kon [7] | Kd [8] | koff [8] | kon [8] | Kd [9] | koff [9] | kon [9] | EC50 (nM), CD86 upregulation on human B cells in the presence of CHO cells expressing human mesothelin [10] | other results
B1 |  |  |  |  |  |  |  |  |  |  | Kd [1]: 2.5 nM; koff [1]: 0.000556 s⁻¹; kon [1]: 218000 M⁻¹ s⁻¹; Kd [2]: 3.3 nM; koff [2]: 0.00035 s⁻¹; kon [2]: 105000 M⁻¹ s⁻¹; Kd [3]: 0.7 nM; koff [3]: 0.000533 s⁻¹; kon [3]: 713000 M⁻¹ s⁻¹; Kd [4]: 19 nM; koff [4]: 0.00519 s⁻¹; kon [4]: 269000 M⁻¹ s⁻¹; EC50 (nM), CD86 upregulation on human B cells with huMSLN-CHO cells [5]: 0.00316 nM; EC50 (nM), CD86 upregulation on human B cells with huMSLN-CHO cells [6]: 0.00445 nM
B2 | 4 nM | 0.000531 s⁻¹ | 134000 M⁻¹ s⁻¹ | 1.7 nM | 0.000137 s⁻¹ | 80600 M⁻¹ s⁻¹ | 0.5 nM | 0.00027 s⁻¹ | 568000 M⁻¹ s⁻¹ | 0.007 nM | 
B3 | 0.7 nM | 0.000423 s⁻¹ | 600000 M⁻¹ s⁻¹ | 0.7 nM | 0.000526 s⁻¹ | 752000 M⁻¹ s⁻¹ | 1 nM | 0.000439 s⁻¹ | 424000 M⁻¹ s⁻¹ | 0.003 nM | 
B4 | 0.6 nM | 0.000325 s⁻¹ | 541000 M⁻¹ s⁻¹ | 0.6 nM | 0.000404 s⁻¹ | 669000 M⁻¹ s⁻¹ | 0.5 nM | 0.000223 s⁻¹ | 451000 M⁻¹ s⁻¹ | 0.006 nM | 
B5 |  |  |  |  |  |  |  |  |  |  | Kd [11]: 6.4 nM; koff [11]: 0.00188 s⁻¹; kon [11]: 294000 M⁻¹ s⁻¹
